Drawing on patent WO2001072771A2, this text covers ratio over background for 50 molecules.

No end group written: not given here.

The target of the first assay is soluble human insulin receptor (IR-Fc) (human) (UniProt P06213). Put plainly: phage ELISA. (ELISA stands for enzyme-linked immunosorbent assay.)
Regarding LSSDGQFYRANLLLQGSAGR [20E2B-2-B7-IGFR], the ratio over background is 0.9.

As to SGAKVIWTGDSGDPFYHKLSELLQGS [B6Hα-2-C10-IR], the ratio over background turned out to be 1.1.

Consider ASSASGFYELLQRLAGLGLEV [20E2B-3-C4-IGFR], for which the ratio over background amounted to 3.3.

Turning to VGYQGQGDENFYDWFIRQVSGRLGVQ [H2CA-4-F5-IGFR], the ratio over background came to 0.8.

Take GFREGNFYEWFQAQVT [E4D -4-H2-IR]: the ratio over background was determined as 8.2.

Consider SSCDGAGHESFYEWFVRQVSGCRSV [H2CA-3-C8-IGFR], for which the ratio over background is 1.2.

As to RAGSSDFHEDFYEWFVRQVSLSLKGK [H2CA-2-B9-IGFR], the ratio over background worked out at 1.7.

As for AVRATRFDEAFYDWFVRQISDGQGNK [H2CA-4-F6-IGFR], the ratio over background was found to be 1.1.

For the molecule QAVQPGFHEEFYDWFVRQVSTGVGGG [H2CA-4-H4-IGFR], the ratio over background came to 1.

Regarding RQGTGSFYLMLEQLLVGARGP [20E2B-4-G11-IGFR], the ratio over background worked out at 0.6.

Turning to ICTGQGFYQVLCGLLRGTSAR [20E2B-2-B3-IGFR], the ratio over background worked out at 0.7.

With RGKTAAVIVGRPADPFYHKLSELLQGG [B6Hα-3-E8-IR], the ratio over background was found to be 1.1.

As for FFYRCLSRLLGGQLGSRLGLSCIGD [20C-3-E4-IGFR], the ratio over background was found to be 1.3.

Regarding LSCLAYSRHGIWRPSTDLGLGRSVGEGSVSTRWRGYDWFE [40F-4-D1-IGFR], the ratio over background turned out to be 0.3.

As for EGSGFYGYFFSLLGLQG [NNRPγ-4-A9-IR], the ratio over background turned out to be 1.4.

Regarding NSRDGGFYLQLERLLGFPVTG [20E2B-3-D4-IGFR], the ratio over background is 0.8.

For the molecule IWATGDFYRLLSQLVMGRVGT [20E2B-2-B8-IGFR], the ratio over background was 0.8.

For the molecule QGNVLDFYGWIGRLLAKQGSD [20E2B-3-D12-IGFR], the ratio over background was determined as 0.9.

With AQPCGGFYGLLEQLVGRSVCD [20E2B-4-F10-IGFR], the ratio over background was found to be 2.2.

On to VATSQGFYSGLSELLQGGGNV [20E2B-3-E12-IGFR], for which the ratio over background was determined as 0.8.

In the case of VGTVAGFYDAIAQLVARASRV [20E2A-3-C7-IGFR], the ratio over background is 1.1.

In the case of SRAKVEAEMPDSGDPFYHKLSELLASG [B6Hα-1-A3-IR], the ratio over background turned out to be 0.8.

On to DRAFYNGLRDLVGAVYGAWD [R20 -4-20C11-IR], for which the ratio over background turned out to be 3.

In the case of VNQSGSIHENFYDWFERQVSHQRGVR [H2CA-4-F10-IGFR], the ratio over background came to 1.

As to DSVGDNFYQLLESLVGGHGVG [20E2B-3-D6-IGFR], the ratio over background amounted to 2.6.

As for PAGPCGFYCGLGLLLHGDQSP [20E2B-4-H8-IGFR], the ratio over background amounted to 0.9.

Regarding YSCGDGFYSLLSDLLGGQFRC [20E2B-4-H12-IGFR], the ratio over background is 0.8.

For APDPSDFQEIFYDWFVRQVSRMPGGG [H2CA-1-A3-IGFR], the ratio over background was found to be 0.8.

For RCQGTGFYTCIQELIGFGDPD [20E2B-4-H9-IGFR], the ratio over background was determined as 0.9.

On to PVGVQGFYEGLSRLVLGRGGW [20E2B-4-F8-IGFR], for which the ratio over background was found to be 0.8.

In the case of RFDPFYSYFVNLLGASA [NNRPγ-4-A7-IR], the ratio over background came to 1.3.

For the molecule RFSTDGFYQYLLALVGGGPVG [20E2B-1-A11-IGFR], the ratio over background turned out to be 1.

The target in the next assay is soluble IGF-1 receptor (human) (UniProt P08069). In words: phage ELISA.
As to LSSDGQFYRANLLLQGSAGR [20E2B-2-B7-IGFR], the ratio over background worked out at 6.1.

As for SGAKVIWTGDSGDPFYHKLSELLQGS [B6Hα-2-C10-IR], the ratio over background amounted to 5.8.

In the case of ASSASGFYELLQRLAGLGLEV [20E2B-3-C4-IGFR], the ratio over background was 20.4.

In the case of VGYQGQGDENFYDWFIRQVSGRLGVQ [H2CA-4-F5-IGFR], the ratio over background was determined as 9.7.

For NVFVSFYDAIDQLVCQRIGC [20E2A-4-G11-IGFR], the ratio over background was found to be 3.3.

For the molecule LQPCSGFYECIERLIGVKLSG (not fully specified (bridges); cysteine pairing not given here) [20E2Bβ-4-G7-IR], the ratio over background was found to be 25.2.

For the molecule YRGMLVLGRSSDGAGKVAFERPARIGQTVFAVNFYDWFV [A6L-0-E6-IR], the ratio over background was determined as 31.

GFREGNFYEWFQAQVT [E4D -4-H2-IR]: the ratio over background turned out to be 33.9.

On to SSCDGAGHESFYEWFVRQVSGCRSV [H2CA-3-C8-IGFR], for which the ratio over background came out at 5.6.

In the case of YRGMVLGRISGGAGKAASERPARIGQKVSAVNFYDWFV [A6L-0-H3-IR], the ratio over background stood at 26.

For RAGSSDFHEDFYEWFVRQVSLSLKGK [H2CA-2-B9-IGFR], the ratio over background amounted to 7.

As to QPAPDGFYSALMKLIGRGGVS [20E2B-3-C8-IGFR], the ratio over background was determined as 15.6.

As to IIGGFYSYFNSVLRLGT [NNRPγ-4-A1-IR], the ratio over background came out at 10.9.

Turning to AVRATRFDEAFYDWFVRQISDGQGNK [H2CA-4-F6-IGFR], the ratio over background was found to be 7.3.

LSVALSFYDALGQLVAGEGRW [20E2A-3-A12-IGFR]: the ratio over background turned out to be 4.3.

As for QAVQPGFHEEFYDWFVRQVSTGVGGG [H2CA-4-H4-IGFR], the ratio over background worked out at 4.1.

With RQGTGSFYLMLEQLLVGARGP [20E2B-4-G11-IGFR], the ratio over background turned out to be 4.5.

Turning to ICTGQGFYQVLCGLLRGTSAR [20E2B-2-B3-IGFR], the ratio over background came to 5.3.

For RGKTAAVIVGRPADPFYHKLSELLQGG [B6Hα-3-E8-IR], the ratio over background is 5.3.

Regarding SSYGCDGFYLMLFSLGLVASQELEC [20C-3-A1-IGFR], the ratio over background turned out to be 20.8.

As to FFYRCLSRLLGGQLGSRLGLSCIGD [20C-3-E4-IGFR], the ratio over background was determined as 7.7.

In the case of LSCLAYSRHGIWRPSTDLGLGRSVGEGSVSTRWRGYDWFE [40F-4-D1-IGFR], the ratio over background came to 4.6.

With EGSGFYGYFFSLLGLQG [NNRPγ-4-A9-IR], the ratio over background is 10.

In the case of NSRDGGFYLQLERLLGFPVTG [20E2B-3-D4-IGFR], the ratio over background turned out to be 7.9.

As to SRVAATKEKRPSDDPFYHKLSELLQGS [B6Hα-3-F7-IR], the ratio over background was 3.1.

Regarding IWATGDFYRLLSQLVMGRVGT [20E2B-2-B8-IGFR], the ratio over background is 5.7.

As to QPDHSYFYSLLQELVGSEERL [20E2B-4-F9-IGFR], the ratio over background is 14.7.

Regarding AGSVTSFYDAMEQLVATGTSA [20E2A-3-A4-IGFR], the ratio over background came to 2.5.

Take RGMKEEVLVGGSTDPFYHKLSELLQGS [B6Hα-3-F11-IR]: the ratio over background stood at 18.7.

As for QGNVLDFYGWIGRLLAKQGSD [20E2B-3-D12-IGFR], the ratio over background stood at 6.2.

For AQPCGGFYGLLEQLVGRSVCD [20E2B-4-F10-IGFR], the ratio over background was determined as 17.3.

In the case of GGTKAVAKVGTRDDPFYHKLSELLQGS [B6Hα-4-G8-IR], the ratio over background worked out at 6.1.

As to VATSQGFYSGLSELLQGGGNV [20E2B-3-E12-IGFR], the ratio over background worked out at 6.

For the molecule VGTVAGFYDAIAQLVARASRV [20E2A-3-C7-IGFR], the ratio over background stood at 5.4.

Take GGTEVDFYRALERLVRGQLGL [20E2B-3-D8-IGFR]: the ratio over background stood at 17.7.

In the case of SRAKVEAEMPDSGDPFYHKLSELLASG [B6Hα-1-A3-IR], the ratio over background stood at 2.6.

DRAFYNGLRDLVGAVYGAWD [R20 -4-20C11-IR]: the ratio over background was 30.8.

RGAVAGFHDQFYDWFDRQVSRVHKFG [H2CA-4-H9-IGFR]: the ratio over background is 5.6.

With VNQSGSIHENFYDWFERQVSHQRGVR [H2CA-4-F10-IGFR], the ratio over background is 5.7.

Take DSVGDNFYQLLESLVGGHGVG [20E2B-3-D6-IGFR]: the ratio over background stood at 17.8.

As to RCEEKQAEVGPSSDPFYHKMSELLGCR [B6Hα-3-E9-IR], the ratio over background worked out at 24.2.

Regarding PAGPCGFYCGLGLLLHGDQSP [20E2B-4-H8-IGFR], the ratio over background was 5.3.

As for YSCGDGFYSLLSDLLGGQFRC [20E2B-4-H12-IGFR], the ratio over background is 9.7.

GCITAENGAGDPFYHKLSELGGCS [B6Hα-1-B3-IR]: the ratio over background came to 3.2.

On to GCWEWQKWHGASDPFYHKLSELGGCS [B6Hα-3-F10-IR], for which the ratio over background came to 8.8.

With APDPSDFQEIFYDWFVRQVSRMPGGG [H2CA-1-A3-IGFR], the ratio over background was 3.8.

Turning to RCQGTGFYTCIQELIGFGDPD [20E2B-4-H9-IGFR], the ratio over background was determined as 5.2.

As for PVGVQGFYEGLSRLVLGRGGW [20E2B-4-F8-IGFR], the ratio over background is 7.3.

For RFDPFYSYFVNLLGASA [NNRPγ-4-A7-IR], the ratio over background worked out at 6.3.

With RFSTDGFYQYLLALVGGGPVG [20E2B-1-A11-IGFR], the ratio over background turned out to be 9.5.
